{
  "source": "paper PMC4540666",
  "binders": {"B1": {"name": "SLP-76 pY173 peptide (Ac-NSMpY173IDRPPTGK-NH2) (peptide)", "peptide": "Ac-NSM[pY]IDRPPTGK-NH2", "SMILES": "CC[C@H](C)[C@H](NC(=O)[C@H](Cc1ccc(OP(=O)(O)O)cc1)NC(=O)[C@H](CCSC)NC(=O)[C@H](CO)NC(=O)[C@H](CC(N)=O)NC(C)=O)C(=O)N[C@@H](CC(=O)O)C(=O)N[C@@H](CCCNC(=N)N)C(=O)N1CCC[C@H]1C(=O)N1CCC[C@H]1C(=O)N[C@H](C(=O)NCC(=O)N[C@@H](CCCCN)C(N)=O)[C@@H](C)O"}},
  "key": {"[1]": {"biological_target": "PLCγ1 SH2C domain (C-terminal SH2 domain of PLCγ1) (rat) (UniProt P10686)", "test": "other fluorescence titration"}, "PLCγ1 SH2C-linker (rat)": {"biological_target": "PLCγ1 SH2C-linker (rat) (UniProt P10686)", "test": "other fluorescence titration"}},
  "note": "[ ]: non-standard residue; d: D form. pY = N[C@@H](Cc1ccc(OP(=O)(O)O)cc1)C(=O)O",
  "data": [
    {"binder": "B1", "values": [
      {"measurement": "Kd", "setting": "[1]", "result": 1600, "unit": "nM"},
      {"measurement": "Kd", "setting": "PLCγ1 SH2C-linker (rat)", "result": 2900, "unit": "nM"}
    ]}
  ]
}
